As a reminder, the Kd is the equilibrium constant for the complex coming apart. High values mean weaker binding, low ones tighter binding.

The record followed here is patent US20220177525A1.

In this assay the target is N-peptide (RABV N protein, residues 363-414, [change]) (RABV).

For the substance “NiP-CTD (C-terminal domain of the P protein of rabies virus strain Nishigahara, residues 186-297, Cy (from UniProt Q9IPJ8 186-296)”, the Kd was found to be 88 µM. That is a double-digit micromolar value.
